Reference: PMC4682817, “The Cardiac Stress Response Factor Ms1 Can Bind to DNA and Has a Function in the Nucleus”

T1: Ms1 270-375 (AT-hook + ABD2) (rat, UniProt Q8K4K7 270-375)
T1 sequence: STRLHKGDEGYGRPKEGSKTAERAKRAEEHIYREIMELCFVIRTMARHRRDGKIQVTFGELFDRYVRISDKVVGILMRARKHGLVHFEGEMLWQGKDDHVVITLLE

B1: AT-hook oligo (dsDNA)
DNA 1: CGAATTAATTCG
DNA 2: CGAATTAATTCG
B2: wt oligo (dsDNA)
DNA 1: GACACAAACACAATAG
DNA 2: CTATTGTGTTTGTGTC
B3: A7G oligo (dsDNA)
DNA 1: GACACAGACACAATAG
DNA 2: CTATTGTGTCTGTGTC

What was measured:
[1] = target: T1, Ms1 270-375 (AT-hook + ABD2); test: fluorescence titration (intrinsic Trp); settings: EMSA buffer: 20 mM phosphate, 100 mM NaCl, 0.01% Triton X-100, pH 7.5, room temperature; fluorescence and NMR buffers not given in the material
[2] = target: T1, Ms1 270-375 (AT-hook + ABD2); test: NMR titration; shifts in AT-hook only; 1:0.5 to 1:2; EMSA buffer: 20 mM phosphate, 100 mM NaCl, 0.01% Triton X-100, pH 7.5, room temperature; fluorescence and NMR buffers not given in the material; settings: protein: recombinant; tags: N-terminal TEV-cleavable poly-His (pLEICS-07); self-complementary
[3] = target: T1, Ms1 270-375 (AT-hook + ABD2); test: fluorescence titration (intrinsic Trp); EMSA buffer: 20 mM phosphate, 100 mM NaCl, 0.01% Triton X-100, pH 7.5, room temperature; fluorescence and NMR buffers not given in the material; settings: protein: recombinant; tags: N-terminal TEV-cleavable poly-His (pLEICS-07)

| Molecule | Kd [3] | also measured |
| --- | --- | --- |
| scrambled oligo | – | Kd [1]: 31 µM |
| B1 | – | binding result [2]: binds |
| B2 | 8.2 ± 1 µM | – |
| B3 | 32 ± 5 µM | – |
